Patent US20070105771A1 (Y S THERAPEUTICS, published 2007)

What was measured:
Assay in all cases: peptide microarray
[1] = biological target: T1, human CD26-derived 13 mer peptide 60 (human)
T1 peptide: YVWNNDIYVKIEP
Experimental: (§1) The overnight incubation was followed by three washings with each of PBS buffer pH 7.5 and water. The microarrays were then scanned using ArrayWorx-Microarray Scanner.
(§2) The SPOT recognition software package ArrayPro was used for data analysis. The mean of signal intensities from 3 identical subarrays on each microarray image was used for data evaluation.

[2] = biological target: T2, human CD26-derived 13 mer peptide 52 (human)
T2 peptide: NNTQWVTWSPVGH
Experimental: as §1, §2

[3] = biological target: T3, human CD26-derived 13 mer peptide 105 (human)
T3 peptide: YPKAGAVNPTVKF
Experimental: as §1, §2

[4] = biological target: T4, human CD26-derived 13 mer peptide 124 (human)
T4 peptide: LIGDHYLCDVTWA
Experimental: as §1, §2

[5] = biological target: T5, human CD26-derived 13 mer peptide 11 (human)
T5 peptide: YLYKQENNILVFN
Experimental: as §1, §2

[6] = biological target: T6, human CD26-derived 13 mer peptide 30 (human)
T6 peptide: SISPDGQFILLEY
Experimental: as §1, §2

[7] = biological target: T7, human CD26-derived 13 mer peptide 107 (human)
T7 peptide: GAVNPTVKFFVVN
Experimental: as §1, §2

[8] = biological target: T8, human CD26-derived 13 mer peptide 85 (human)
T8 peptide: WSPNGTFLAYAQF
Experimental: as §1, §2

[9] = biological target: T9, human CD26-derived 13 mer peptide 1 (human)
T9 peptide: YLKNTYRLKLYSL
Experimental: as §1, §2

[10] = biological target: T10, human CD26-derived 13 mer peptide 5 (human)
T10 peptide: KLYSLRWISDHEY
Experimental: as §1, §2

[11] = biological target: T11, human CD26-derived 13 mer peptide 126 (human)
T11 peptide: HYLCDVTWATQER
Experimental: as §1, §2

[12] = biological target: T12, human CD26-derived 13 mer peptide 71 (human)
T12 peptide: TGKEDIIYNGITD
Experimental: as §1, §2

[13] = biological target: T13, human CD26-derived 13 mer peptide 6 (human)
T13 peptide: YSLRWISDHEYLY
Experimental: as §1, §2

[14] = biological target: T14, human CD26-derived 13 mer peptide 44 (human)
T14 peptide: IYDLNKRQLITEE
Experimental: as §1, §2

[15] = biological target: T15, human CD26-derived 13 mer peptide 97 (human)
T15 peptide: FYSDESLQYPKTV
Experimental: as §1, §2

[16] = biological target: T16, human CD26-derived 13 mer peptide 42 (human)
T16 peptide: ASYDIYDLNKRQL
Experimental: as §1, §2

[17] = biological target: T17, human CD26-derived 13 mer peptide 33 (human)
T17 peptide: QFILLEYNYVKQW
Experimental: as §1, §2

[18] = biological target: T18, human CD26-derived 13 mer peptide 14 (human)
T18 peptide: NNILVFNAEYGNS
Experimental: as §1, §2

[19] = biological target: T19, human CD26-derived 13 mer peptide 25 (human)
T19 peptide: DEFGHSINDYSIS
Experimental: as §1, §2

[20] = biological target: T20, human CD26-derived 13 mer peptide 12 (human)
T20 peptide: YKQENNILVFNAE
Experimental: as §1, §2

[21] = biological target: T21, human CD26-derived 13 mer peptide 3 (human)
T21 peptide: TYRLKLYSLRWIS
Experimental: as §1, §2

[22] = biological target: T22, human CD26-derived 13 mer peptide 49 (human)
T22 construct: also called TEERJPNNTQWVT
T22 peptide: TEERIPNNTQWVT
Experimental: as §1, §2

[23] = biological target: T23, human CD26-derived 13 mer peptide 58 (human)
T23 peptide: HKLAYVWNNDIYV
Experimental: as §1, §2

[24] = biological target: T24, human CD26-derived 13 mer peptide 15 (human)
T24 peptide: ILVFNAEYGNSSV
Experimental: as §1, §2

[25] = biological target: T25, human CD26-derived 13 mer peptide 53 (human)
T25 peptide: TQWVTWSPVGHKL
Experimental: as §1, §2

[26] = biological target: T26, human CD26-derived 13 mer peptide 24 (human)
T26 peptide: TFDEFGHSINDYS
Experimental: as §1, §2

[27] = biological target: T27, human CD26-derived 13 mer peptide 84 (human)
T27 peptide: LWWSPNGTFLAYA
Experimental: as §1, §2

[28] = biological target: T28, human CD26-derived 13 mer peptide 43 (human)
T28 peptide: YDIYDLNKRQLIT
Experimental: as §1, §2

[29] = biological target: T29, human CD26-derived 13 mer peptide 28 (human)
T29 peptide: INDYSISPDGQFI
Experimental: as §1, §2

[30] = biological target: T30, human CD26-derived 13 mer peptide 64 (human)
T30 peptide: VKIEPNLPSYRIT
Experimental: as §1, §2

[31] = biological target: T31, human CD26-derived 13 mer peptide 32 (human)
T31 peptide: DGQFILLEYNYVK
Experimental: as §1, §2

[32] = biological target: T32, human CD26-derived 13 mer peptide 106 (human)
T32 peptide: KAGAVNPTVKFFV
Experimental: as §1, §2

[33] = biological target: T33, human CD26-derived 13 mer peptide 112 (human)
T33 peptide: VVNTDSLSSVTNA
Experimental: as §1, §2

[34] = biological target: T34, human CD26-derived 13 mer peptide 61 (human)
T34 peptide: WNNDIYVKIEPNL
Experimental: as §1, §2

[35] = biological target: T35, human CD26-derived 13 mer peptide 80 (human)
T35 peptide: EVFSAYSALWWSP
Experimental: as §1, §2

[36] = biological target: T36, human CD26-derived 13 mer peptide 93 (human)
T36 peptide: EVPLIEYSFYSDE
Experimental: as §1, §2

[37] = biological target: T37, human CD26-derived 13 mer peptide 10 (human)
T37 peptide: HEYLYKQENNILV
Experimental: as §1, §2

[38] = biological target: T38, human CD26-derived 13 mer peptide 26 (human)
T38 peptide: FGHSINDYSISPD
Experimental: as §1, §2

[39] = biological target: T39, human CD26-derived 13 mer peptide 40 (human)
T39 peptide: HSYTASYDIYDLN
Experimental: as §1, §2

[40] = biological target: T40, human CD26-derived 13 mer peptide 94 (human)
T40 peptide: PLIEYSFYSDESL
Experimental: as §1, §2

[41] = biological target: T41, human CD26-derived 13 mer peptide 95 (human)
T41 peptide: IEYSFYSDESLQY
Experimental: as §1, §2

[42] = biological target: T42, human CD26-derived 13 mer peptide 90 (human)
T42 peptide: AQFNDTEVPLIEY
Experimental: as §1, §2

Mean Signal Value [1]: 0.0769
Mean Signal Value [2]: 0.12
Mean Signal Value [3]: 0
Mean Signal Value [4]: 12.7
Mean Signal Value [5]: 5.78
Mean Signal Value [6]: 6.26
Mean Signal Value [7]: 10.6
Mean Signal Value [8]: 1.02
Mean Signal Value [9]: 3.5
Mean Signal Value [10]: 43.1
Mean Signal Value [11]: 0.0337
Mean Signal Value [12]: 0
Mean Signal Value [13]: 97.5
Mean Signal Value [14]: 0
Mean Signal Value [15]: 0.0144
Mean Signal Value [16]: 0
Mean Signal Value [17]: 21.8
Mean Signal Value [18]: 0.00962
Mean Signal Value [19]: 0
Mean Signal Value [20]: 0
Mean Signal Value [21]: 0.726
Mean Signal Value [22]: 0.962
Mean Signal Value [23]: 33.8
Mean Signal Value [24]: 0
Mean Signal Value [25]: 0.00481
Mean Signal Value [26]: 0.00962
Mean Signal Value [27]: 17.2
Mean Signal Value [28]: 0
Mean Signal Value [29]: 0.221
Mean Signal Value [30]: 0.438
Mean Signal Value [31]: 0.0192
Mean Signal Value [32]: 0.245
Mean Signal Value [33]: 0
Mean Signal Value [34]: 0.0385
Mean Signal Value [35]: 17.7
Mean Signal Value [36]: 0.269
Mean Signal Value [37]: 0.0192
Mean Signal Value [38]: 0.0337
Mean Signal Value [39]: 32.2
Mean Signal Value [40]: 0.0433
Mean Signal Value [41]: 6.14
Mean Signal Value [42]: 0
B1: rhuMAb 411 (antibody, human IgG1, kappa, V domains shown)
VH: EVQLVESGAGVKQPGGTLRLTCTASGFSLTTYGVHWVRQAPGKGLEWVGVIWGDGRTDYDAAFMSRVTISKDTSKSTVYLQMNSLRAEDTAVYYCMRNRHDWFDYWGQGTTVTVSS
VL: DILLTQSPSSLSATPGERATITCRASQGIRNNLNWYQQKPGQAPRLLIYYSSNLQSGVPSRFSGSGSGTDFTLTISRLQPEDVAAYYCQQSIKLPFTFGSGTKVEIKR
notes: also called X411
